Sequences and labels used below:
T1: Nat1 (LTIITLE) (also: TFA salt)
T1 peptide: LTIITLE

Non-standard residues stand in square brackets, D forms with d. No end group written: not given here. hArg = N=C(N)NCCCC[C@H](N)C(=O)O

The first experiment addresses T1, Nat1 (LTIITLE). Briefly: cell-based or functional assay.
As to [dY][dQ][dW][dR][dY][dR][dR] [yqwryrr], the “IC50, Thiofiavin T aggregation assay” value turned out to be 191 nM.

In the case of IRIRRY, the “IC50, Thiofiavin T aggregation assay” value was found to be 205 nM.

Turning to TRIYRYK, the “IC50, Thiofiavin T aggregation assay” value was 213 nM.

As to LYIRTLH, the “IC50, Thiofiavin T aggregation assay” value worked out at 203 nM.

As for FRIRRYR, the “IC50, Thiofiavin T aggregation assay” value amounted to 185 nM.

As to [dR][dW][dM][dY][dW][dQ][dR] [rwmywqr], the “IC50, Thiofiavin T aggregation assay” value was 216 nM.

In the case of LYIRLTH, the “IC50, Thiofiavin T aggregation assay” value is 192 nM.

In the case of [dH][dL][dR][dY][dH][dR][dK] [hlryhrk], the “IC50, Thiofiavin T aggregation assay” value was found to be 192 nM.

In the case of [dR][dW][dR][dI][dL][dQ][dK] [rwrilqk], the “IC50, Thiofiavin T aggregation assay” value stood at 199 nM.

Turning to [dR][dL][dH][dW][dK][dH][dH] [rlhwkhh], the “IC50, Thiofiavin T aggregation assay” value turned out to be 215 nM.

Turning to [dF][dW][dR][dW][dH][dR][dA] [fwrwhra], the “IC50, Thiofiavin T aggregation assay” value was 228 nM.

[dR][dQ][dH][dY][dR][dW][dR] [rqhyrwr]: the “IC50, Thiofiavin T aggregation assay” value is 210 nM.

With [dR][dI][dH][dY][dF][dR][dR] [rihyfrr], the “IC50, Thiofiavin T aggregation assay” value stood at 43 nM.

In the case of WTRITLK, the “IC50, Thiofiavin T aggregation assay” value was 222 nM.

With [dS][dW][dW][dF][dR][dH][dR] [swwfrhr], the “IC50, Thiofiavin T aggregation assay” value was found to be 187 nM.

As for WTIRYYK, the “IC50, Thiofiavin T aggregation assay” value worked out at 203 nM.

In the case of IRI[hArg]RYR [Ile-Arg-Ile-homoArg-Arg-Tyr-Arg], the “IC50, Thiofiavin T aggregation assay” value was 40 nM.

For LAIKYHR, the “IC50, Thiofiavin T aggregation assay” value worked out at 220 nM.

For LTIRLWH, the “IC50, Thiofiavin T aggregation assay” value came out at 198 nM.

As to LFIKYHR, the “IC50, Thiofiavin T aggregation assay” value is 210 nM.

As for [dL][dW][dR][dW][dY][dR][dR] [lwrwyrr], the “IC50, Thiofiavin T aggregation assay” value is 194 nM.

The target in another experiment is Protein in Human Serum. Kind of experiment: protein binding in human serum; method not described.
In turn, rrrrrrrrrrpihlriwrn (peptide) yielded a % Protein Binding in Human Serum of 95%.

Molecule rrrrrrrrrrpikfrfyhr (peptide) registered a % Protein Binding in Human Serum of 86%.

For the molecule rrrrrrrrrrpihqrqyqr (peptide), the % Protein Binding in Human Serum turned out to be 12%.

For the molecule rrrrrrrrrrpirihyfrr (peptide), the % Protein Binding in Human Serum was determined as 93%.

rrrrrrrrrgggyqwyrwq (peptide) gave a % Protein Binding in Human Serum of 89%.

In the case of rrrrrrrrrrpikwrwyrr (peptide), the % Protein Binding in Human Serum was found to be 94%.

The record behind these values is patent publication US20200062804A1 (ADRX, published 2020).
